The assay concerns the target T1, MBP-ARIH2 (UniProt O95376 1-493).
T1 construct: RBR-type E3 ubiquitin ligase ARIH2, cloned in this study into an MBP-tagged Gateway vector; source: E. coli BL21 (DE3), purified (Dextran-Sepharose, maltose elution)
T1 sequence (looked up): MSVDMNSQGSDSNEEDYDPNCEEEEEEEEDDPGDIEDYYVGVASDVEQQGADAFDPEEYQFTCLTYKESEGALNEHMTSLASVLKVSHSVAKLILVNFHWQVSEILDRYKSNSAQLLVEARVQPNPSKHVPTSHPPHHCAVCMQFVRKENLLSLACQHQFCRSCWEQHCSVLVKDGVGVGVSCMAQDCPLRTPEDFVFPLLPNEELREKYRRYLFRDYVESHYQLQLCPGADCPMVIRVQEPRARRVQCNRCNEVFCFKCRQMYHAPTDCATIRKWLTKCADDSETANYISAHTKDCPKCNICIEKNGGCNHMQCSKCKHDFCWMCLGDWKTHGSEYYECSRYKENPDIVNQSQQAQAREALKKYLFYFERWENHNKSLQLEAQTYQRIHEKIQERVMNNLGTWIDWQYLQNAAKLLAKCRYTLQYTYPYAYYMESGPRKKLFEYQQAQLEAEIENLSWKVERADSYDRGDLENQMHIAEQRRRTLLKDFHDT
Kind of assay: pull-down; bacterially purified recombinant GST-tagged protein incubated with purified MBP-ARIH2; eluates immunoblotted with MBP antibody. To be noted: both partners purified. (Immunoblotting shows a protein as a band on a membrane.)

B1: GST-Lis1 (natural protein, human, UniProt P43034 1-410, looked up)
chain: MVLSQRQRDELNRAIADYLRSNGYEEAYSVFKKEAELDVNEELDKKYAGLLEKKWTSVIRLQKKVMELESKLNEAKEEFTSGGPLGQKRDPKEWIPRPPEKYALSGHRSPVTRVIFHPVFSVMVSASEDATIKVWDYETGDFERTLKGHTDSVQDISFDHSGKLLASCSADMTIKLWDFQGFECIRTMHGHDHNVSSVAIMPNGDHIVSASRDKTIKMWEVQTGYCVKTFTGHREWVRMVRPNQDGTLIASCSNDQTVRVWVVATKECKAELREHEHVVECISWAPESSYSSISEATGSETKKSGKPGPFLLSGSRDKTIKMWDVSTGMCLMTLVGHDNWVRGVLFHSGGKFILSCADDKTLRVWDYKNKRCMKTLNAHEHFVTSLDFHKTAPYVVTGSVDQTVKVWECR
notes: Lis1 (PAFAH1B1), human, in a GST-tagged Gateway vector; source: E. coli BL21 (DE3), purified (Glutathione Sepharose)
Consider B1, for which the binding result is on record as “binds”.

For the origin of these results see PMC12648486, “A LisH-domain protein interaction map reveals a Lis1-ARIH2-dynein regulatory axis” (iScience, 2025).
